Reference: the nanobody polyreactivity screen of Harvey et al. (2022)

Test: yeast display, Sf9 membrane polyspecificity reagent, FACS + sequencing; frameworks hold sequencing errors
Summary of the method: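 Galactose-induced (36–48 hours) yeast carrying a synthetic nanobody display library were exposed to 10% biotinylated, detergent-solubilized Sf9 membrane reagent at 4 °C for 1 hour. FACS followed streptavidin microbead enrichment, using low and high (top ~1%) gates for expression (anti-HA) and reagent binding (streptavidin). Colony PCR, MiSeq 2 × 250 sequencing and CDR-length filtering followed. Labels for polyreactivity reflect the gate of origin.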

| Sequence | polyreactivity (PSR sort gate) |
| --- | --- |
| QVQLVESGGGLVQAGGSLRLSSAACGTIFVLNAMGWYRPAPGKERELVAAITNVGSTYYADSVKGRFTISRDNAKNTFYLQMNSLKPEDTAVYYCNADPGEVLVGYDYWGQGTQVTVSS | low polyreactivity |
| QVQLVESGGGLVQAGGSLRLSCAASGSTFRDNAMGWYRQAPGKEWELVAAITVIDGTTYYADSVKGRFTLSRDNAKNTVYLQMNSLKPEDTAVYYCAADTIWYEYYYWGQGTQVTVSS | low polyreactivity |
| KVQLVESGGGLVQAGGSLRLSCAASGNTFYVYTMGWYRQAPGKERDLVAAISSTGDRTYYADSVKGRFTISRDNAKNTVYLQMNSLKPEDTSVYYCADVRYITKEFYWGLGTQVTVSS | high polyreactivity |
| QDQLVESGGGLDQAGGSLRLSCAASGGTFKVNAMGWYRQAPGKEREFVAAISSGGSTYYADSVKGRFTISRDNAKNTVYLQINSLKPEDTAVYYFAASGAYDEAYGEAFYYWGQGTQVIVSS | low polyreactivity |
| QVQLVESGGGLVQAGGSLRLSCAASGFIFWYYAMGWYRQAPGKERELVAAITSGGSTNYADSVKGRFTISRDNAKNTVYLQMNSLKPEDTAVYYCARPYVTYEYDYWGQGTQVTVSS | low polyreactivity |
| QVQLVESGGGLVQAGGSLRLSCAASGFTFRYNAMGWYRQAPGKKGSWVAAISRTGGSTYYADSVKGRFTISRDNAKNTVYLQMNSLKPEDTAVYYCATYSSRQRKSSYYYWGQGTQVTVSS | high polyreactivity |
| QVQLVESGGGLVQAGGSLRLSCAASGLIFPRYAMGWYRQAPGKERELVAAITRGGSTYYADSVKGRFTISRDNAKNTVYLQMNSLNPEDTAVYYCTAELPVHWSWYDYWGQGPQVTVSS | low polyreactivity |
| QVQLVESGGGLVQAGGSLRLSCAASGSIFVGYGAMGWYRQAPGKERELVAAITSGNSTYYADSVKGRFTISRDNAKNTVYLQMNSLKPEDTAVYYCAARGFLKYVTEFDYWGQGTQVTVSS | low polyreactivity |
| QVQLVESGGGLVQAGGSLRLSCAASGRTFWRNDMGWYRQAPGKERELVARISWSGGSTYYADSVKGRFTISRDNAKNTVYLQMNSLKPEDTAVYYCAKYYPGRSAFSDGNYWGQGTQVTVSS | low polyreactivity |
| QVQLVESGGGLVQEGGSLRLSCAASGITFLQYAMGWYRQAPGKERELVAVISRGSRTYYADSVKGRFTISRDNAKNTVYLQMNCLQPDDTAVYYCAAVRGLALGYDYWGQGTQVTVSS | high polyreactivity |
| QVQLVESGGGLVQAGGSLRLSCAASGSTFGPYAMGWYRQAPGKERELVATISGSGSSTYYADSVKGRFTISRDNAKNTVYLQMNSLKPEDTAVYYCATDLYFDLRYDYWGQGTQVTVSS | low polyreactivity |
| QVQLVESGGGLVQAGGSLRISCAASGSIFGDNAMGWYRHAPGKERELVAAITFSGGSTHYADSVKGRFTISRDTAKNTVYLQMNSLKPEDTAVYYCAKRWRYSKHVNYYYWGQGTQVTVSS | high polyreactivity |
| QVQLVESGGGLVQAGGSLRLSCAASGIIFYYYAMGWYRQAPGKERELVAAISWSGDGTYYADSVKGRFTISRDKAKNTVYLQMNSLKPEDTAVYYCAALNDGFTGYDYLDEYTDYGYWGQGTQVTVSS | low polyreactivity |
| QVQRVESGGGLVQAGGSRRLTCAASGRTSVPYARGWYRQAPGKERELVAAITSGGSTYYADSVKGRFTISRDNAKNTVYLQMNSLKPEDTAVYYCAASLPHSAPYTASYGSWGQGTQVTVSS | low polyreactivity |
| QVQLVESGGRLVQAGGRLRLSCAASGSISASYAMGWYRQAPGKERELVAAITSGGSTYYADSVKGRFTISRDNAKYTVYLQMNSLKPEDTAVYYCAKRPKRTYYPHIGYDYWGLGTQVTVSS | low polyreactivity |
| QVQLVESGGGLVQAGGSLRLSCAASGSIVGYNAMGWYRQAPGKEWEFVAAISWSGGRTYYADSVKGRFTISRDNAKNTVYLQMNILKPEDTAVYYSAADVFFYVYEAYLLYYWGQRTQVTVSS | low polyreactivity |
| QVQLVESGGGLVQAGGSLRLSCAASGRILTYYAMGWYRQAPGKERELVAAISWRAGYTYYADSVKGRFTISRDNAKNTVYLQMNSLKPEDTAVYYCAAETSNRGRRYYYWGQGTQVTVSS | high polyreactivity |
| QVKLVESGGGLVQAGGSLRLSCAASGNTFGGYAMGWYRQAPGKERELVAAISSSGGSTYYADSVKGRFTISRDNAKNTVYLQMNSLKPEDTAVYYCAAYGGFYGYWTMGYWGQGTQVTVSS | high polyreactivity |
| QVQLVESGGGLVQAGGSLRLTCAASGRTFLLYAMGWYRQAPGKERELVAAITSRSGRTYYADSVKGRFTISRDNAKNTVYLQMNSLKPEDTAVYYCAAQGYAPQEYEYWGQGTQVTVSS | high polyreactivity |
| QVQLVESGGGLVKAGGSLRLSCAASGLTFYFYAMGWYRQAPGKERELVAGIRKRGGGTYYADSVKGRFTISRDNAKNTVYLQMNSLKPEDTAVYYCAKEPGWGRRSTTAYDYWGQGTQVTVSS | low polyreactivity |
| QVQLVESGGGLVQAGGSLRLSCAASGFIFPIYAMGWYRQEHGKERELVAGISGSGTSTYYADSVKGRFTISLDYAKNTVYLQMNSLKPVDNAVYYCNAKYPWGNYKSVSYDYWGQGTQVTVSS | high polyreactivity |
| QVQLVESGGGLFQAGGSLRLSCAASGSTSRYPMGWYRQAQGQERELVAAITRSGGTTYYADSVKGRFTISRDNAKNTVYLQMYSLKPEDTAVYYCATSDRQVKYDYWGQGTQVTVSS | low polyreactivity |

| Sequence | polyreactivity (PSR sort gate) |
| --- | --- |
| QVQLVESGGGLVQAGGSLRLSCAASGFIFYDYAMGWYRQAPGKERELVAAITVDGGTTYYADSVKGRFTISRDNAKNTVYLQMNSLKPEDTAVYYCAADTYYGFDSNYEYWGQGTQVTVSS | low polyreactivity |
| QVQLVESGGGLVQAGGSLRLSCAASGSIFGYNAMGWYRQAPGKERELVAAITSIGGNTYADSVKGRFTISRDNAKNTVYLQMNSLKPEDTAVYYCAAERNTDPIQVVYEFDYWGQGTQVTVSS | low polyreactivity |
| QVQLVESGGGLVQAGGSLRLSCAASGRTFTFYTMGCYRQSPGKERELVAAITRSGGGTYYADSVKGRFTISRDNAKNTVYLQMNSLKPEDTAVYYCAAYNRNAFHWGQGTQVTVSS | high polyreactivity |
| QVQLVESGGGLVQAGGSLRLSCAASGFTFWFNAMGWYRQAPGKEREFVATISYSGASTYYADSVKGRFTISRDNAKNTVYLQMNSLKPEDTAVYYCAAANYDFYAFDSTYRYNYWGQGTQVTVSS | low polyreactivity |
| QVQLIESGGGLVHAGGSLRLSCAASGSTYQANTMGWYSHAPGKERQLVAAISIRGANTYYADSVKGRFTISRDNAKNTVYIQMNSLKPEDTAVYDCATRVRKYSLRLDYWGQGTQVTVSS | high polyreactivity |
| QVQLVESGGGLVQAGGSLRLSCAASGFTFAPNAMGWYRQAPGKERELVAAISSASSTYYADSVKGRFTISRDNAKNTVYLQMNSLKPEETAVYYCAAKSSTKQRKYYWGQGTQVTVSS | high polyreactivity |
| QVQHVESGGGLVQAGGSLRLSCAASGSIFGVNVMGWYRQAPGKERELVAAISSGGGSTYYAESVKGRFTISRDNAKNTVYLQMNSLKPEDTAVYYCAARGQKYGSTYRMDYWGQGTQVTVSS | low polyreactivity |
| HVQLEETGRGLVQAGGSLRISCAASGRIFEYYAMGWYRQAPGKDRELVAAITSSTGSTSYADSVKGRFTISRDNEKNTVYLQMNSLKPEDTAVYYCAADVWFFSKLSRYDYWGQGTQVTVSS | low polyreactivity |
| QVQLVESGGGLVQAGGSLRLSCAASGRTFVDNAMGWYRQAPGKKRELVATISSGDSTTYADSVKGRFTISRDNAKNTVYLQMNSLKPEDTAVYYCAAAYGWSWYRYDYWGQGTQVTVSS | high polyreactivity |
| QVQLVESGGGLVQAGGSLRLSCAASGLTFRYYAMGWYRQAPGKERELVAAITRRGSTYYADSVKGRFTISRDNAKNTVYLQMNSLKPEDTAVYYCATVTGFHSSPLRDLDYWGQGTQVTVSS | high polyreactivity |
| QVQLVESGGGLVQAGGSLRLSCAASGSIFYRYAMGWNRQAPGKERELVATITQSGVSTYYADSEKGRFTISRDNAKNTVYLQMNSLKPEDTAVYYCAASYYYTIGPYFRKFDWGQGTQVTVSS | low polyreactivity |
| QVQLVESGGGLVQAGGSLRLTCAASGFTFDQYAMGWYRQEPGKERELVAAISFDGSSTYYADSVKGRFTISRDNAKNTVYLQMNSLKPEDTAVYYCNAAVRGYSSLYRYGYWGQGTQVTVSS | high polyreactivity |
| QVQLVESGGGLVQAGGSLRLSCAASGRIFHKYAMGWYRQAPGKERELVATIRSDDITYYADSVKGRFTISRDNAKNTVYLQMNSLKPEDTAVYYCAAYFWRYSSLYYYWGQGTQVTVSS | high polyreactivity |
| QVQLVESGGGLVQAGGSLRLSSAASGSIFRIYAMGWYRQAPGKERELVAAMSSGGSTYYADSVKGRFTISRDNAKNTVYLQMNSLKPEDTAVYYCAAYPEYVSGAWYDYWGQGTQVTLSS | low polyreactivity |
| QVQLVESGGGLVQAGGSLLLSCAASGYTFKSYVMGWYRQAPGKERELVAAITSIGGSTYYADSVKGRFTISRDNAKNNVYLQMNSLKPEDTALYYCAKYPGISGYNYWGQGTQVTVSS | high polyreactivity |
| QVQLVESCGGLVQAGGSLRLSCADSGYTFTTYVMGWYRQAPGKERELVAAISRRGTSTRYADSVKGRFTISRDNAKNTVYFQMNSLKPEDTAVYYCAARSSVPNRFTRDGYWGQGTQVTVSS | high polyreactivity |
| QVQLVQSGGGLVQAGGSLRLSCAASGRIFRTYAMGWYRQAPGKERELVAAISSRSGSTYYADSVKGRFTISRDNAKNTVYLQMQSLKPEDTAVYYCASRYGYRYADKGSEYGYWGQGTLVTVSS | high polyreactivity |
| QVQLVESGGGLVQAGGSLRLSCAASGFIFVDYVMGWDIQAPGKERELVAAISERGTGTYYADSVKRRFTISRDKAKNTVYLQMNSLKPEDTAVYYCATLGTGWWNCAYYYWGQGTQVTVSS | low polyreactivity |
| QVQLVESGGGLVQAGGSLRLSCAASGSIFTVNAMGWYRQARGKERELVAAISSGGSTHYADSVKGRFTISRDNAKNTVYLQMNSLKPEDTAVYYCARDRPGDYAGYDYWGQGTQVTVSS | low polyreactivity |
| QVQLVESGGGLVQAGGSLRLSCDASGSIFPYNAMGWFRQAPGKEWELVAAISKRGGSTYYADSVKGRFTISRDNAKNTVYLQMNSLKPEDSAVYYCAARYPPYRSWYSYDSWGQGTQVTVSS | low polyreactivity |
| QVQLVESVGGLVQAGGSLRLSCAASGSIFAPYAMGWYRQAPGKERELVAAITWSGDSTYYADSVKGRFTISRDNAKNTVYLQMNSLKPEDTAVYYCATEEVYGQGNYWGQGTQVTVSS | low polyreactivity |
